Experimental data from patent US20180086841A1 (Merck Sharp & Dohme, published 2018).
Where a chain is given by its changes, count along the chain named.

T1: W90A
T1 construct: also called hCD27 W90A
T1 receptor chain: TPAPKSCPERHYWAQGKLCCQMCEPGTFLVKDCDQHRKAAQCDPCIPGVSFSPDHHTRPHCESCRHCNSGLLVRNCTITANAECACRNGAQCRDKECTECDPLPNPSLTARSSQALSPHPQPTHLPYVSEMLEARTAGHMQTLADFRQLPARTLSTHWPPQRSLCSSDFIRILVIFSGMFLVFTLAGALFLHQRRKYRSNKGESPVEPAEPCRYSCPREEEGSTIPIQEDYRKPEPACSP

T2: K17A
T2 construct: also called hCD27 K17A
T2 receptor chain: T1 receptor chain with K17A, A90W

T3: R10A
T3 construct: also called hCD27 R10A
T3 receptor chain: T1 receptor chain with R10A, A90W

T4: K31A
T4 construct: also called hCD27 K31A
T4 receptor chain: T1 receptor chain with K31A, A90W

T5: R87A
T5 construct: also called hCD27 R87A
T5 receptor chain: T1 receptor chain with R87A, A90W

T6: S63A
T6 construct: also called hCD27 S63A
T6 receptor chain: T1 receptor chain with S63A, A90W

T7: V49A
T7 construct: also called hCD27 V49A
T7 receptor chain: T1 receptor chain with V49A, A90W

T8: I46A
T8 construct: also called hCD27 I46A
T8 receptor chain: T1 receptor chain with I46A, A90W

T9: G16A
T9 construct: also called hCD27 G16A
T9 receptor chain: T1 receptor chain with G16A, A90W

T10: H36A
T10 construct: also called hCD27 H36A
T10 receptor chain: T1 receptor chain with H36A, A90W

B1: hCD27.131A (mouse parental 131A) (antibody, mouse IgG1, V domains shown)
VH: QIQLVQSGPELKKPGETVKISCKASGYTFTNYGMNWVKQAPGKGLKWMGWINTNTGEPTYAEEFKGRFAFSLETSATTAYLQINNLKNEDTATYFCAREGDAMDYWGQGTSVTVSS
VL: QIVLTQSPAIMSASPGEKVTMTCSASSSVSYMHWYQQKSGTSPKRWIYDTSKLASGVPARFSGSGSGTSYSLTISSMEAEDAATYYCQQWNSYPFTFGSGTKLEIK
notes: Mouse IgG1 antibody; also called mouse hCD27.131A
B2: hCD27.15-6B (antibody, human IgG4 S228P, kappa, V domains shown)
VH: QVQLVQSGAEVKKPGASVKVSCKASGFIIKATYMHWVRQAPGQRLEWMGRIDPANGETKYDPKFQVRVTITADTSASTAYMELSSLRSEDTAVYYCARYAWYFDVWGQGTLVTVSS
VL: DIQMTQSPSSLSASVGDRVTITCRASENIYSFLAWYQQKPGKAPKLLIYHAKTLAEGVTSRFSGSGSGTDFTLTISSLQPEDSATYYCQHYYGSPLTFGQGTRLEIKR
notes: also called hCD27.15 (humanized 6B); humanized hCD27.15 (human IgG4, Clone 6B)

Assays:
[1] = biological target: T1, W90A; experiment: flow cytometry on CHO-K1 transfectants, right sub-column
Method: (§1) The hCD27 variants that were tested are listed. Amino acids correspond to the UniProt P26842-1 sequence. Amino acids 1-20 constitute the signal peptide. Binding is expressed as the geometric mean of the FITC signal, relative to antibody binding to hCD27, which was set at 100%.
(§2) The ability of several anti-hCD27 antibodies to bind to a series of hCD27 alanine mutants was determined using CHO-K1 cells, transiently transfected pCI-neo empty vector, pCI-neo.hCD27 and several pCI-neo.CD27Ala mutant constructs.
(§3) Detached cells were transferred to 96 wells round-bottomed well plates at approximately 1.2×10⁵ cells/well. After spinning down the cells, discarding the supernatants and re-suspending the cells in the residual volume, the primary antibodies were added and incubated for 30 minutes at 4° C. Cells were washed three times with DPBS/BSA 1%, followed by centrifugation, discarding of the supernatants and re-suspension in the residual volume. […] After washing once, antibody binding was detected using the HTS plate reader (FACS Canto II) and FlowJo software for data analysis. Debris, dead cells and doublets were excluded from the analysis. Binding was expressed as the geometric mean of the FITC signal, relative to antibody binding to hCD27, which was set at 100%.

[2] = biological target: T2, K17A; experiment: as above
Method: as §1, §2, §3

[3] = biological target: T3, R10A; experiment: as above
Method: as §1, §2, §3

[4] = biological target: T4, K31A; experiment: as above
Method: as §1, §2, §3

[5] = biological target: T5, R87A; experiment: as above
Method: as §1, §2, §3

[6] = biological target: T6, S63A; experiment: as above
Method: as §1, §2, §3

[7] = biological target: T7, V49A; experiment: as above
Method: as §1, §2, §3

[8] = biological target: T8, I46A; experiment: as above
Method: as §1, §2, §3

[9] = biological target: T9, G16A; experiment: flow cytometry on CHO-K1 transfectants;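 note: Anti-hCD27 antibodies tested on transiently transfected CHO-K1 cells bearing hCD27 alanine mutants, 30 min at 4 °C primary incubation, FITC readout excluding debris, dead cells and doublets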
[10] = biological target: T10, H36A; experiment: flow cytometry on CHO-K1 transfectants;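 note: Anti-hCD27 antibodies tested on transiently transfected CHO-K1 cells bearing hCD27 alanine mutants, 30 min at 4 °C primary incubation, FITC readout excluding debris, dead cells and doublets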

Row | binding, WT hCD27 = 100 (GM FITC) [1] | binding, WT hCD27 = 100 (GM FITC) [2] | binding, WT hCD27 = 100 (GM FITC) [3] | binding, WT hCD27 = 100 (GM FITC) [4] | binding, WT hCD27 = 100 (GM FITC) [5] | binding, WT hCD27 = 100 (GM FITC) [6] | binding, WT hCD27 = 100 (GM FITC) [7] | binding, WT hCD27 = 100 (GM FITC) [8] | binding, WT hCD27 = 100 (GM FITC) [9] | binding, WT hCD27 = 100 (GM FITC) [10] | Binder
1 | 102% | 126% | 108% | 134% | 111% | 141% | 99.8% | 75% |  |  | B1
2 |  |  |  |  |  |  |  |  | 141% | 122% | B2
